Measurements as given in US7148193B2, “Compounds that bind to growth hormone receptor” (Antyra, Inc., priority 1997, dated 2006).
Changes are numbered by the printed parent chain.

Assays:
[1] = biological target: T1, rat growth hormone receptor (Rattus norvegicus, UniProt P16310); experiment: Cell proliferation assay (WST-1) in FDC-1 cells stably transfected with rat growth hormone receptor; type: cell-based; conditions: cells with 0.003 μM bovine GH, 18 h, at the concentrations tested
T1 construct: expressed in transfected cells; host or cells: FDC-1 cells
T1 sequence (P16310 19-638): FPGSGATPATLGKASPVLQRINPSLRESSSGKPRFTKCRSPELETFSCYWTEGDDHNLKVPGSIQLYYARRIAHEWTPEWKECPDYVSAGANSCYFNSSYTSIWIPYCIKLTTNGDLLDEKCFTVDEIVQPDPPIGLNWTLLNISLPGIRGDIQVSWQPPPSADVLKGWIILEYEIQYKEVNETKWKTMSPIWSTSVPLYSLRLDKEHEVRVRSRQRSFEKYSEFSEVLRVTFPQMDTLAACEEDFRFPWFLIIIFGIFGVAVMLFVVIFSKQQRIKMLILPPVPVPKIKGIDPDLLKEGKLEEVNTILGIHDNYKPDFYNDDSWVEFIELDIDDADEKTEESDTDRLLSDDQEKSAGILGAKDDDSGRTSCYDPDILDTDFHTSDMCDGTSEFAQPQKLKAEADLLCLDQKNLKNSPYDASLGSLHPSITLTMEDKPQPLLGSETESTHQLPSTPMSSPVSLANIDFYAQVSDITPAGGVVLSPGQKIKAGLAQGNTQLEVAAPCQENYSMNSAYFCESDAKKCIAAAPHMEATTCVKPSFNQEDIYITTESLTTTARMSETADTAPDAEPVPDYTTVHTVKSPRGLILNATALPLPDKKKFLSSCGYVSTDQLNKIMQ
Method: Cells transfected with rat GHR (50,000 cells per well) were incubated with either bovine GH, H5 peptide (SEQ ID NO:8), 447 peptide (SEQ ID NO:11) or control peptide (SEQ ID NO:10) for 18 h at 37° C. Experiments were done in triplicate. Background signal A450=0.15. […] Cells transfected with rat GHR (50,000 cells per well) containing […] bovine GH were incubated with either control peptide (SEQ ID NO:10), H5 peptide (SEQ ID NO:8) or 447 peptide (SEQ ID NO:11) for 18 h at 37° C. Proliferation was measured using WST-1 reagent. The “*” symbol corresponds to the A450 measurement for the cells incubated without GH.
Agonistic and antagonistic activities of the two peptides, H5WT (SEQ ID NO:8) and bP#447 ([…]), were tested in FDC-1 cells stably transfected with the gene encoding the rat growth hormone receptor. The resulting cell line required either IL-3 or GH for growth. The cells were grown in RPMI 1640 medium containing 10% FCS (fetal calf serum) and 20 units of IL-3 per ml. […] activity assays were performed in a total volume of 100 μl in 96 well plates (flat bottom). Cells were seeded at 50,000 cells/well in 50 μl RPMI 1640 (without IL-3) medium containing horse serum instead of FCS to reduce background. To duplicate wells, 50 μl of either growth hormone or peptides at different concentrations was added, followed by incubation for 18 h in a CO2 incubator. Assays to measure the antagonistic activity were performed in a total volume of 100 μl in 96 well plates. Either H5WT peptide (SEQ ID NO:8), bP#447 peptide (SEQ ID NO:11), or control peptide (SEQ ID NO:10) was added to cells containing 0.003 μM of bovine GH and incubated at 37° C. for 18 h in a CO2 incubator. Proliferation assays were performed using WST-1 reagent. The WST-1 tetrazolium salt (light red color) is cleaved to formazan (dark red color) by the succinate-tetrazolium reductase system, which is active only in viable cells. […] Ten microliters of WST-1 reagent was added and the plates incubated for 1–4 h 37° C. Proliferation was measured by absorbance at 450 nm.

rGHBP [2] = biological target: T2, rGHBP (Rattus norvegicus, UniProt P16310); experiment: Phage ELISA binding and competition on rGHBP coated wells; conditions: for ELISA Competition, rGHBP, +BSA / ELISA Competition, rGHBP, +bGH / ELISA Competition, rGHBP, none: ELISA signal; for ELISA Competition, rGHBP, +BSA: BSA 1 μM; for ELISA Competition, rGHBP, none: no competitor; for clone binding blocked by GH: GH 1 μM, bovine GH on rat GHBP wells, huGH on ‘hu’ GHBP wells
T2 construct: 1–48 of GHBP; The 3′ oligo used for this reaction encoded the mutation L43R (CTG→AGA); The second PCR reaction amplified the DNA encoding amino acids 38–260; 6xHis; made in house
T2 sequence (P16310 19-278 isoform P16310-2): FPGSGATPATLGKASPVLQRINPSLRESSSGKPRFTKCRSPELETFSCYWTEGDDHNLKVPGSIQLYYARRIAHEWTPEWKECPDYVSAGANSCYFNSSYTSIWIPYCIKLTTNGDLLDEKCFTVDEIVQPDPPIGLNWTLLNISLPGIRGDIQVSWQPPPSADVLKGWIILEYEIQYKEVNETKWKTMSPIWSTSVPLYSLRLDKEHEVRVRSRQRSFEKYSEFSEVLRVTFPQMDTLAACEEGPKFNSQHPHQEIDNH
Method: For analysis of individual clones, colonies were picked and phage prepared as described above. Microtiter wells were coated and blocked as described above. Wells were coated with either rGHBP or a control IgG MAb. Phage resuspended in MPBS were added to duplicate wells (100 μl/well) and incubated at room temperature for 1 hr. The phage solution was then removed, and the wells were washed three times with PBS at room temperature. Anti-M13 antibody conjugated to horseradish peroxidase (Pharmacia Biotech) was diluted 1:3000 in MPBS and added to each well (100 μl/well). Incubation was for another hour at room temperature, followed by PBS washes as described. Color was developed by addition of ABTS solution (100 μl/well; Boehringer). Color development was stopped by adjusting each well to 0.5% SDS. Plates were analyzed at 405 nm using a SpectraMax 340 plate reader (Molecular Devices) and SoftMax Pro software. Data points were averaged after subtraction of appropriate blanks. A clone was considered “positive” if the A405 of the well was >2-fold over background. […]
These clones were next analyzed for binding to the receptor's active sites (FIG. 2B). Competitions of phage binding were done both with the cognate ligand (i.e., GH) and with a specific target-neutralizing MAb 2C3 (Wang, B. S., et al. Mol. Cellular Endocrinology, vol. 116, p. 223–226, 1996).
(§1) Clones were tested for the presence of E-tag and binding to ‘hu’ GHBP, rGHBP, or BSA-coated wells. Those having specific GHBP binding (i.e., at least 2 fold greater binding to the GHBP than BSA) and with an E-tag positive signal were subjected to DNA sequencing. Three different clones were isolated and tested a second time against GHBP plus and minus GH (1 μM) or BSA (1 μM) coated wells as described. In these tests, huGH was used as competitor with ‘hu’ GHBP coated wells and bovineGH was used as a competitor with rat GHBP coated wells. […] The following open reading frame insertion including the DYKD (SEQ ID NO:79) amino terminal tag and up to the C-terminal E-tag was obtained for these clones; and is shown in Table III: […]

[3] = biological target: T3, ‘hu’ GHBP (humanized rat GHBP) (Rattus norvegicus, UniProt P16310, L61R); experiment: Phage ELISA binding and competition on 'hu' GHBP coated wells; conditions: ELISA signal; for ELISA Competition, ‘hu’GHBP, +BSA: BSA 1 μM; for ELISA Competition, ‘hu’GHBP, +hGH: huGH 1 μM as competitor; for ELISA Competition, ‘hu’GHBP, none: no competitor
T3 construct: 1–48 of GHBP; The 3′ oligo used for this reaction encoded the mutation L43R (CTG→AGA); The second PCR reaction amplified the DNA encoding amino acids 38–260; 6xHis; made in house
T3 sequence (P16310 19-278 isoform P16310-2 L61R): T2 sequence (P16310 19-278 isoform P16310-2) with L43R
Method: For analysis of individual clones, colonies were picked and phage prepared as described above. Microtiter wells were coated and blocked as described above. Wells were coated with either rGHBP or a control IgG MAb. Phage resuspended in MPBS were added to duplicate wells (100 μl/well) and incubated at room temperature for 1 hr. The phage solution was then removed, and the wells were washed three times with PBS at room temperature. Anti-M13 antibody conjugated to horseradish peroxidase (Pharmacia Biotech) was diluted 1:3000 in MPBS and added to each well (100 μl/well). Incubation was for another hour at room temperature, followed by PBS washes as described. Color was developed by addition of ABTS solution (100 μl/well; Boehringer). Color development was stopped by adjusting each well to 0.5% SDS. Plates were analyzed at 405 nm using a SpectraMax 340 plate reader (Molecular Devices) and SoftMax Pro software. Data points were averaged after subtraction of appropriate blanks. A clone was considered “positive” if the A405 of the well was >2-fold over background.
Humanized GHBP (‘hu’ GHBP) contained the single amino acid change of rat GHBP amino acids L43 to R43, and was capable of binding human GH, as shown in FIG. 9. Direct immobilization of ‘hu’ GHBP was done as described earlier for panning of the secondary H5 library against rat GHBP and used inputs of ‘hu’ GHBP, prepared as described earlier of 100 μl per well of […] protein. Panning was performed with or without H10 peptide (SEQ ID NO:9; 30 μM) for 4 rounds, and 96 clones were picked.
as §1

rGHBP [4] = biological target: T2, rGHBP; experiment: Species specificity of binding by ELISA and BIAcore, rGHBP; conditions: in words
Method: (§2) Wells were coated with either recombinant rGHBP or ‘hu’ GHBP (100 ng/well). Additions of H5 (SEQ ID NO:8) and H10 (SEQ ID NOS:9, 80, and 81) phage (10^10/well) and detection were made as described. […] Streptavidin chips were coated with H5 (SEQ ID NO:8) to 1100 RU as described and rGHBP or ‘hu’ GHBP (500 μg/ml) injected as 30 μl samples.
(§3) Growth hormone receptors from different species bind human GH as well as their own GH, however human GHR only binds human or monkey GH. […] The sequence of rGHBP was altered by PCR to create a “humanized” version (‘hu’ GHBP; FIG. 9A). Partially purified ‘hu’GHBP (FIG. 9B) was tested for binding using ELISA and BIAcore analysis. […] This was confirmed by BIAcore analysis (FIG. 10B).
(§4) The biotinylated control peptide (SEQ ID NO:10) was immobilized onto one flow cell of a SA-5 (streptavidin coated) sensor chip to a final density of 700 RU. On a second flow cell, either hGH (1100 RU final density), H5WT peptide (SEQ ID NO:8; 1100 RU final density), or bGH (730 RU final density) was immobilized. GHBP (either rat or humanized) was injected at a concentration of 500 μg/ml with a flow rate of 5 μl/min. Background binding to the control surface was subtracted prior to further analysis.

‘hu’ GHBP = biological target: T4, ‘hu’ GHBP (Rattus norvegicus, UniProt P16310, L61R); experiment: Species specificity of binding by ELISA and BIAcore, 'hu' GHBP; conditions: in words
T4 construct: 1–48 of GHBP; The 3′ oligo used for this reaction encoded the mutation L43R (CTG→AGA); The second PCR reaction amplified the DNA encoding amino acids 38–260; 6xHis; made in house
T4 sequence (P16310 19-278 isoform P16310-2 L61R): T2 sequence (P16310 19-278 isoform P16310-2) with L43R
Method: as §2, §3, §4

Substance | antagonistic activity [1] | ELISA Competition, rGHBP, +BSA (rGHBP [2]) | ELISA Competition, rGHBP, +bGH (rGHBP [2]; bovine GH 1 μM as competitor) | ELISA Competition, rGHBP, none (rGHBP [2]) | clone binding blocked by GH (rGHBP [2]) | ELISA Competition, ‘hu’GHBP, +BSA [3] | ELISA Competition, ‘hu’GHBP, +hGH [3] | ELISA Competition, ‘hu’GHBP, none [3] | binding to rGHBP (rGHBP [4]) | binding to ‘hu’ GHBP (‘hu’ GHBP) | ELISA Competition, rGHBP, +BSA (rGHBP [2]; phage concentrated 15×) | ELISA Competition, rGHBP, +bGH (rGHBP [2]; bovine GH 1 μM, phage concentrated 15×) | ELISA Competition, rGHBP, none (rGHBP [2]; phage concentrated 15×) | binding to rGHBP (rGHBP [4]; listed as clone 13) | binding to ‘hu’ GHBP (‘hu’ GHBP; listed as clone 13) | phage binding to rGHBP blocked by GH and MAb 2C3 (rGHBP [2]; competition ELISA of phage binding)
Control peptide: SEQ ID NO:10, contains same amino acids as H5 in randomized order (DYKDWCLTLQPLVWASGGGYCA; control peptide) [reference compound] | no antagonistic activity |  |  |  |  |  |  |  |  |  |  |  |  |  |  | 
DYKDALLHRSRCVRWGKWVCCLPPVGVGGAQANQGMSVQRFRHC (phage displayed; clone hh peptide) |  | 0.53 | 0.52 | 0.55 | only clone 13 was blocked by GH | 0.37 | 0.35 | 0.37 | bind to both forms of GHBP | bind to both forms of GHBP |  |  |  |  |  | 
DYKDAQWWTTlGSNMFVLPGLRGCTFLPPMQCDREIRVFLVVVH (DYKDAQWWTTIGSNMFVLPGLRGCTFLPPMQCDREIRVFLVVVH; phage displayed; clone 13 peptide) [compound 13] |  |  |  |  | blocked by GH |  |  |  | bind to both forms of GHBP | bind to both forms of GHBP | 1.98 | 0.29 | 2.01 | bound to both human and rat forms of GHBP | bound to both human and rat forms of GHBP | 
H10: frame shifted phage clone without ORF, SEQ ID NOS:9, 80 and 81, binds rGHBP outside the active site (WLGCYFVAGVVACV; H10 peptide) |  | 0.52 | 0.48 | 0.52 |  | 0.29 | 0.28 | 0.30 | bound to rGHBP | bound to rGHBP and ‘hu’ GHBP |  |  |  |  |  | not blocked by either GH or MAb 2C3
